Source: patent US20230227545A1 (published 2023)

Columns and labels:
[1] = target: T1, mouse IL-1β (mouse, UniProt P10749 118-269); test: SPR, Biacore 8K, mAb captured on anti-human Fc chip, soluble IL-1β as analyte
T1 construct: also called mouse IL-β
T1 sequence (looked up): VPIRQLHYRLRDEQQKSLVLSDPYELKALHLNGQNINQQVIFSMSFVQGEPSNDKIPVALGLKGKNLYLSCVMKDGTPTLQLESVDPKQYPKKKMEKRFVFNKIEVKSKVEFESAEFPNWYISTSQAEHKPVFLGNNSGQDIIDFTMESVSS
Description: (§1) Affinity assessment of 05H21A, 15N14A, and 08F17A against human IL-1β was performed by Surface Plasmon Resonance (SPR) using a Biacore 8k. Cross-reactivity of the same antibody panel was also assessed against cyno, mouse, rat and pig IL-1β.
(§2) SPR is a label-free technique to study the strength of an interaction between two binding partners by measuring the change in mass upon complex formation and dissociation. Briefly, antibodies were immobilized on a sensor chip which was coupled with goat anti-human Fc (GAH-Fc C1 sensor chip). Soluble IL-1β was flowed over the immobilized antibody and association/dissociation responses were monitored. Kinetic information (on-rate and off-rate constants) were extracted by fitting sensorgrams to the 1:1 Langmuir model. Binding affinity (KD) were reported as the ratio of rate constants (koff/kₒₙ).

[2] = target: T2, rat IL-1β (rat, UniProt Q63264 117-268); test: as above
T2 construct: also called rat IL-β
T2 sequence (looked up): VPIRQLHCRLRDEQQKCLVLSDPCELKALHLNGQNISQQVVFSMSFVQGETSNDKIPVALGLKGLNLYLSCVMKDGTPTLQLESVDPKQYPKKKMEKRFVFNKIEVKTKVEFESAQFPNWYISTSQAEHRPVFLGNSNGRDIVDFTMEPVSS
Description: as §1, §2

[3] = target: T3, pig IL-1β (pig, UniProt P26889 115-267); test: as above
T3 construct: also called pig IL-β
T3 sequence (looked up): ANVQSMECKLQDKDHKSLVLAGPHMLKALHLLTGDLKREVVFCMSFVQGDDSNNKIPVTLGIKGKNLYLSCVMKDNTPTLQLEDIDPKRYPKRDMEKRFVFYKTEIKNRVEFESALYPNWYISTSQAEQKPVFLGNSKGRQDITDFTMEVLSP
Description: as §1, §2

[4] = target: T4, human IL-1β (human, UniProt P01584 117-269); test: cell-based or functional assay
[5] = target: T4, human IL-1β; test: cell-based or functional assay; remark: listed apart in the source
[6] = target: T5, cynomolgus IL-1β (cynomolgus macaque, UniProt P79182 117-268); test: cell-based or functional assay
T5 sequence (looked up): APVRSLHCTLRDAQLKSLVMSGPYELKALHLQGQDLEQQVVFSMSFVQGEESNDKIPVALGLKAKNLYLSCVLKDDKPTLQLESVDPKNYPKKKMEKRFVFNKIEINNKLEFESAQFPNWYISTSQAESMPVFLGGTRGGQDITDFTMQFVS

[7] = target: T4, human IL-1β; test: cell-based or functional assay; remark: listed apart in the source
[8] = target: T5, cynomolgus IL-1β; test: SPR, Biacore 8K, mAb captured on goat anti-human Fc C1 chip, soluble IL-1β as analyte, 1:1 Langmuir fit
Description: as §1, §2

[9] = target: T4, human IL-1β; test: as above
Description: as §1, §2

binding result [1]: no binding
binding result [2]: no binding
binding result [3]: no binding
IC30, inhibition of rhIL-1β-induced CXCL5 release, human whole blood (5 donors) [4]: 1.33 nM
IC30, inhibition of rhIL-1β-induced G-CSF release, human whole blood (5 donors) [4]: 0.704 nM
IC30, inhibition of rhIL-1β-induced IL-6 release, human whole blood (5 donors) [4]: 0.872 nM
IC50, inhibition of rhIL-1β-induced CXCL5 release, human whole blood (5 donors) [4]: 2.86 nM
IC50, inhibition of rhIL-1β-induced G-CSF release, human whole blood (5 donors) [4]: 1.31 nM
IC50, inhibition of rhIL-1β-induced IL-6 release, human whole blood (5 donors) [4]: 1.53 nM
IC90, inhibition of rhIL-1β-induced CXCL5 release, human whole blood (5 donors) [4]: 20.8 nM
IC90, inhibition of rhIL-1β-induced G-CSF release, human whole blood (5 donors) [4]: 6.58 nM
IC90, inhibition of rhIL-1β-induced IL-6 release, human whole blood (5 donors) [4]: 6.56 nM
IC30, inhibition of rhIL-1β-induced cytokine release, NHDF donor 29114 [5]: 0.087 nM
IC30, inhibition of rhIL-1β-induced cytokine release, NHLF donor 34325 [5]: 0.127 nM
IC30, inhibition of rhIL-1β-induced cytokine release, NHLF donor 35234 [5]: 0.09 nM
IC50, inhibition of rhIL-1β-induced cytokine release, NHDF donor 29114 [5]: 0.174 nM
IC50, inhibition of rhIL-1β-induced cytokine release, NHLF donor 34325 [5]: 0.293 nM
IC50, inhibition of rhIL-1β-induced cytokine release, NHLF donor 35234 [5]: 0.207 nM
IC90, inhibition of rhIL-1β-induced cytokine release, NHDF donor 29114 [5]: 1.07 nM
IC90, inhibition of rhIL-1β-induced cytokine release, NHLF donor 34325 [5]: 2.55 nM
IC90, inhibition of rhIL-1β-induced cytokine release, NHLF donor 35234 [5]: 1.8 nM
IC30, inhibition of G-CSF release, cynomolgus lung fibroblasts (CLF), 15 pM rcynoIL-1β [6]: 3.58 nM
IC30, inhibition of IL-6 release, cynomolgus dermal fibroblasts (CDF), 5 pM rcynoIL-1β [6]: 2.72 nM
IC30, inhibition of IL-6 release, cynomolgus lung fibroblasts (CLF), 15 pM rcynoIL-1β [6]: 3.44 nM
IC50, inhibition of G-CSF release, cynomolgus dermal fibroblasts (CDF), 5 pM rcynoIL-1β [6]: 3.24 nM
IC50, inhibition of G-CSF release, cynomolgus lung fibroblasts (CLF), 15 pM rcynoIL-1β [6]: 6.11 nM
IC50, inhibition of IL-6 release, cynomolgus dermal fibroblasts (CDF), 5 pM rcynoIL-1β [6]: 5.1 nM
IC50, inhibition of IL-6 release, cynomolgus lung fibroblasts (CLF), 15 pM rcynoIL-1β [6]: 6.97 nM
IC90, inhibition of G-CSF release, cynomolgus lung fibroblasts (CLF), 15 pM rcynoIL-1β [6]: 24.3 nM
IC90, inhibition of IL-6 release, cynomolgus dermal fibroblasts (CDF), 5 pM rcynoIL-1β [6]: 25.9 nM
IC90, inhibition of IL-6 release, cynomolgus lung fibroblasts (CLF), 15 pM rcynoIL-1β [6]: 43.6 nM
IC30, inhibition of IL-6 release, human PBMCs (n=5 donors), 10 pM rhIL-1β [7]: 0.052 nM
IC30, inhibition of IL-6 release, human PBMCs (n=5 donors), 30 pM rhIL-1β [7]: 0.156 nM
IC50, inhibition of IL-6 release, human PBMCs (n=5 donors), 10 pM rhIL-1β [7]: 0.092 nM
IC50, inhibition of IL-6 release, human PBMCs (n=5 donors), 30 pM rhIL-1β [7]: 0.241 nM
IC90, inhibition of IL-6 release, human PBMCs (n=5 donors), 10 pM rhIL-1β [7]: 0.402 nM
IC90, inhibition of IL-6 release, human PBMCs (n=5 donors), 30 pM rhIL-1β [7]: 0.744 nM
Kd [8]: 1.71 nM
koff [8]: 0.000295 s⁻¹
kon [8]: 172000 M⁻¹ s⁻¹
Kd [9]: 0.18 nM
B1: 08F17A (antibody, human IgG1, kappa, V domains shown)
VH: EVQLVESGGGLVTPGGSLRLSCAASGFTFSGYSMNWVRQAPGKGLEWVSSISSSSGYIYYADSVKGRFTISRDNAKNSLYLQMNSLRAEDTAVYYCAREYWGSGFDYWGQGTLVTVSS
VL: DIQMTQSPSSLSASVGDRVTITCRASQGISYYLAWYQQKPGKVPKLLISAEFTLQSGVPSRFSGSGSGTDFTLTISSLQPEDVATYYCQKYNTAPRTFGQGTKVEIKR
notes: Kappa light chain; also called 08F17A (anti-IL-1β) mAb [IgG1: YTE]
